This note sets out measurements from patent US9926375B2, “Anti-endoglin antibodies and uses thereof” (Tracon Pharmaceuticals, Inc., priority 2014, dated 2018).

“Also recorded” adds a separate entry of the source.

The test system of one test is NASH mice. Put plainly: Murine model of non-alcoholic steatohepatitis (NASH; STZ and high fat diet). It counts as in vivo, mouse. The text has this:
The purpose of this study was to examine the protective effects of endoglin antibodies on a murine model of NASH.
NASH was established by a single subcutaneous injection of STZ (Sigma, USA) after birth and feeding with a high fat diet (HFD; CLEA Japan, Japan) ad libitum after 4 weeks of age (day 28±2).
Randomization of mice into 6 groups of 10 mice was done at 9 weeks of age (day 63±2), the day before the start of treatment.
Group 3 (Positive control; Temlisartan Group): Ten NASH mice were be orally administered pure water supplemented with telmisartan at a dose of 10 mg/kg once daily from day 63 to 84.
Group 4 (Antibody M1043: M1043 Group): Ten NASH mice were intravenously administered vehicle supplemented with Antibody M1043 at a dose of 10 mg/kg twice weekly at day 63, 66, 70, 73, 77 and 80.
Group 5 (Antibody TRC105; TRC105 Group): Ten NASH mice were intravenously administered vehicle supplemented with Antibody TRC105 at a dose of 10 mg/kg twice weekly at day 63, 66, 70, 73, 77 and 80.
Group 6 (Antibody TRC205; TRC205 Group): Ten NASH mice were intravenously administered vehicle supplemented with Antibody TRC205 at a dose of 10 mg/kg twice weekly at days 63, 66, 70, 73, 77 and 80.
Mice in all groups were terminated for the following assays at 12 weeks of age.
H&E staining of liver tissue was conducted to estimate NAFLD Activity score.
Total NAS score represents the sum of scores for steatosis, lobular inflammation, and ballooning, and ranges from 0-8. Diagnosis of NASH (or, alternatively, fatty liver not diagnostic of NASH) should be made first, then NAS is used to grade activity. In the reference study, NAS scores of 0-2 occurred in cases largely considered not diagnostic of NASH, scores of 3-4 were evenly divided among those considered not diagnostic, borderline, or positive for NASH. Scores of 5-8 occurred in cases that were largely considered diagnostic of NASH.
Statistical tests were performed using Bonferroni Multiple Comparison Test. P values<0.05 were considered statistically significant.

For test [1], the target named is T1, human CD105 (Homo sapiens, UniProt P17813).
T1 construct: purchased R&D Systems 1097-EN
T1 sequence (P17813 26-586 limits assumed): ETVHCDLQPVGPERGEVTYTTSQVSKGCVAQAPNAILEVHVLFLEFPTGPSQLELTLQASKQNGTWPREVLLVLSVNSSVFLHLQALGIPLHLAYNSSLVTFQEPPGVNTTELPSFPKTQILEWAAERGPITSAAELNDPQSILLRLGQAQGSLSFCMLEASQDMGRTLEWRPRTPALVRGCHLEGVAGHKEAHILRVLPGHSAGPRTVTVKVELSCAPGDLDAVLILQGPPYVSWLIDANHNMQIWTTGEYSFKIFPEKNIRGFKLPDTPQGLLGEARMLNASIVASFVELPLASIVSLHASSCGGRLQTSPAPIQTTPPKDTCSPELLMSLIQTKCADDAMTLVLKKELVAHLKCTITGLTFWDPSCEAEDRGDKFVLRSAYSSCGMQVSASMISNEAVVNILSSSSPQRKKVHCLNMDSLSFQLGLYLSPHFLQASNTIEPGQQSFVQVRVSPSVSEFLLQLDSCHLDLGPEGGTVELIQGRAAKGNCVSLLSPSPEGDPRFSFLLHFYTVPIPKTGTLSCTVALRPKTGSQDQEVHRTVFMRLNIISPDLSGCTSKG
Put plainly: ELISA binding of biotinylated TRC205 antibody to human CD105. The conditions noted are these: from the binding curve. The protocol: An ELISA was established to determine the binding of biotinylated TRC205 antibody to human CD105 as follows: The TRC205 antibody (SEQ ID NO 89/SEQ ID NO 93; IgG4) was biotinylated using a Lightning-Link Biotin Conjugation Kit (Type A) (Innova Biosciences Cat. No. 704-0010) according to the manufacturer's instructions. […] After washing three times with PBST, a three-fold dilution series of biotinylated TRC205 antibody (10 μg/ml to 0.014 μg/ml) in PBST/2% BSA was added in duplicate to the plate. Following incubation for 1 hour at room temperature, the plate was washed three times with PBST and binding of the biotinylated TRC205 antibody was detected using streptavidin-HRP (Sigma Cat. No. 55512) and TMB substrate (Sigma Cat. No. T0440). OD450 nm values were measured on a Dynex MRX TCII plate reader.

Test [2] deals with T1, human CD105. Put plainly: Competition ELISA against biotinylated TRC205 antibody for binding to human CD105. The conditions noted are these: biotinylated TRC205 55 ng/ml. As to the method:
After washing three times with PBST, a three-fold dilution series of either human BMP9 (R&D Systems Cat. No. 3209-BP-010) (413 nM to 0.56 nM), or unlabelled TRC205 antibody (40 nM to 0.05 nM) or a single concentration of an irrelevant antibody (66 nM) was mixed with a fixed concentration of biotinylated TRC205 antibody (55 ng/ml) and added to the plate. Following incubation for 1 hour at room temperature, the plate was washed three times with PBST and binding of the biotinylated TRC205 antibody was detected using streptavidin-HRP (Sigma Cat. No. 55512) and TMB substrate (Sigma Cat. No. T0440). OD450 nm values were measured on a Dynex MRX TCII plate reader.

Another test addresses T2, mouse endoglin (Mus musculus, UniProt Q63961).
T2 construct: purchased R&D Systems 1320-EN-025
T2 sequence (Q63961 27-581 limits assumed): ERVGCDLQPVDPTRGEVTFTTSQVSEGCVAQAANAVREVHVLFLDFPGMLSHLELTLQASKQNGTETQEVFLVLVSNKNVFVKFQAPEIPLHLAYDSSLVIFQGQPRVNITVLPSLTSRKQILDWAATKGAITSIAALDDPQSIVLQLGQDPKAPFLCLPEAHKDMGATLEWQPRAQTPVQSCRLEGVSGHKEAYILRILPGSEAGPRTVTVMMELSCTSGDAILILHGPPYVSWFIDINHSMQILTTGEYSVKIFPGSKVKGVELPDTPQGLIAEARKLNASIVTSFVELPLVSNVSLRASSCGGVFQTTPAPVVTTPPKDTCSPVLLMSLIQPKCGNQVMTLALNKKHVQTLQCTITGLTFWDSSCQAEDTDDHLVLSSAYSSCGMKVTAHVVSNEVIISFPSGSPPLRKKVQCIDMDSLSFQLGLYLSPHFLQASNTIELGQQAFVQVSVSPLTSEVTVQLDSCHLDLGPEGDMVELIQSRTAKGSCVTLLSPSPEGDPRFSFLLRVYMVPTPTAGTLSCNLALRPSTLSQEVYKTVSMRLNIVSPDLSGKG
Put plainly: Competition ELISA of mouse BMP9 against biotinylated M1043 for binding to mouse endoglin. The conditions noted are these: 30 μg/ml to 0.004 μg/ml competitor; biotinylated M1043 40 ng/ml. As to the method: The ability of mouse BMP9 to compete with the rat antibody M1043 for binding to mouse endoglin was determined by competition ELISA as follows: 200 μg of M1043 antibody was biotinylated with a Lightning-Link biotinylation kit (Innova Biosciences, Cat. No. 704-0010) according to the manufacturers recommendations. Nunc Immuno MaxiSorp 96 well flat bottom plates (Fisher Cat. No. DIS-971-030J) were coated with mouse endoglin (R&D Systems, Cat. No. 1320-EN-025) at 1 μg/ml in PBS overnight at 4° C. The following day the plate was washed three times with PBST before blocking with PBST/3% Marvel at room temperature for 1 hour. A threefold dilution series (30 μg/ml to 0.004 μg/ml) of mouse BMP9 (R&D Systems, Cat. No. 5566-BP-010) or an irrelevant rat IgG1 was mixed with a fixed concentration of biotinylated M1043 (40 ng/ml), added to the plate and incubated for 1 hour at room temperature. Binding of the biotinylated antibody was detected via streptavidin-HRP (Sigma, Cat. No. 55512) and TMB substrate (Sigma, Cat. No. T0440). OD450 nm values were measured on a Dynex MRX TCII plate reader.

The mark [3] stands for this setting: liver gene expression, mean ± SD, Normal-Vehicle 1.0.

B1: TRC205: humanized and deimmunized anti-endoglin antibody (SEQ ID NO 89/SEQ ID NO 93; IgG4) (antibody, V domains shown)
VH: EVQLVESGGGLVKPGGSLRLSCAASGFTFSDAWMDWVRQAPGKGLEWVGEARSKASNHATYYAESVKGRFTISRDDSKNTLYLQMNSLKTEDTAVYYCTRWRRFFDSWGQGTLVTVSS
VL: DIQMTQSPSSLSASVGDRATITCRASSSVSYMHWYQQKPGKAPKPWAYATSNLASGVPSRFSGSGSGTDYTLTISSLQPEDFATYYCQQWSSNPLTFGGGTKVEIK
For the molecule B1, in the test on NASH mice (Bonferroni, P<0.05), the “Alpha-smooth muscle actin mRNA expression levels compared with the NASH-Vehicle group” value is listed as “significantly down-regulated”, the “Liver triglyceride contents compared with the NASH-Vehicle group” value is reported as “significant decreases”, the “Mean liver-to-body weight ratio compared with the NASH-Vehicle group” value was “tended to decrease; also recorded: no significant difference” and the “NAS compared with the NASH-Vehicle group” value is “significant decreases in NAS; also recorded: significant reductions of NAS”. In the test on NASH mice (Bonferroni, P<0.05), the “Serum alanine aminotransferase (ALT) levels compared with the NASH-Vehicle group” value is reported as “tended to decrease”, the “Serum alkaline phosphatase (ALP) levels compared with the NASH-Vehicle group” value is given as “significant decrease”, the “Serum aspartate aminotransferase (AST) levels compared with the NASH-Vehicle group” value is listed as “tended to decrease” and the “Tissue inhibitor of metalloproteinase-1 mRNA expression levels compared with the NASH-Vehicle group” value is “tended to decrease”. Moreover, the “Tumor necrosis factor-alpha mRNA expression levels compared with the NASH-Vehicle group” value in the test on NASH mice (Bonferroni, P<0.05) is “tended to increase”. For the same molecule, in the test with NASH mice (F4/80 immunostaining, macrophage marker), the “F4/80-positive signals and cells in liver compared with the NASH-Vehicle group” value was “Lower F4/80-positive signals and positive cells”. Besides, in the test with NASH mice (setting [3]), the “Alpha-SMA mRNA expression” value was 1.1 ± 0.3, the “MCP-1 mRNA expression” value is given as 9.3 ± 9.1, the “TIMP-1 mRNA expression” value is listed as 6.0 ± 2.6 and the “TNF-α mRNA expression” value is listed as 6.2 ± 2.4. In the test on NASH mice (mean ± SD), the Liver triglyceride was 29.3 ± 9.4 mg/g liver, the “Serum ALP” value was determined as 264 ± 63 U/L, the “Serum ALT” value amounted to 28 ± 16 U/L and the “Serum AST” value was 83 ± 41 U/L. Also, the Sirius red-positive area in the test with NASH mice (mean ± SD, liver sections) was found to be 0.93 ± 0.14%. Further, the “NAS (NAFLD Activity score)” value in the test with NASH mice (mean ± SD, range 0-8, 10 mg/kg) was determined as 3.6 ± 1.1. The “Lobular inflammation score 0, number of mice” value in the test with NASH mice (score 0 = No Foci) is on record as 5. Besides, the “Hepatocyte ballooning score 0, number of mice” value in the test on NASH mice (score 0 = None) was 1. Moreover, in the test with NASH mice (score 1 = 5-33%), the “Steatosis score 1, number of mice” value was 6. The “Hepatocyte ballooning score 1, number of mice” value in the test with NASH mice (score 1 = Few balloon cells) is reported as 4. In the test on NASH mice (score 2 = 2-4 foci/200x), the “Lobular inflammation score 2, number of mice” value is 4. Further, in the test on NASH mice (score 2 = >33-66%), the “Steatosis score 2, number of mice” value is listed as 3. In addition, the “Hepatocyte ballooning score 2, number of mice” value in the test with NASH mice (score 2 = Many cells/prominent ballooning) came out at 4. The “Inflammatory cell infiltration in the liver” value in the test with NASH mice (summary of lobular inflammation score and F4/80 immunostaining) is on record as “reductions in inflammatory cell infiltration in the liver”. Further, the “EC50 of binding to human CD105” value with human CD105 [1] worked out at 46 ng/mL. Moreover, in the test with human CD105 [2], the “IC50 of competition with biotinylated TRC205 antibody” value was found to be 0.26 µg/mL.

B2: mouse BMP9: mouse BMP9 (R&D Systems, Cat. No. 5566-BP-010), endoglin ligand (protein)
chain: STGASSHCQKTSLRVNFEDIGWDSWIIAPKEYDAYECKGGCFFPLADDVTPTKHAIVQTLVHLKFPTKVGKACCVPTKLSPISILYKDDMGVPTLKYHYEGMSVAECGCR
For B2, the “Competition with biotinylated M1043 for binding to mouse endoglin” value with mouse endoglin was “competed with biotinylated M1043 for binding to mouse endoglin”.
